Reference: US20230189844

Columns and labels:
[1] = target: T1, Soy Kunitz Inhibitor (Trypsin Inhibitor from soybean) (UniProt P01070)
T1 sequence: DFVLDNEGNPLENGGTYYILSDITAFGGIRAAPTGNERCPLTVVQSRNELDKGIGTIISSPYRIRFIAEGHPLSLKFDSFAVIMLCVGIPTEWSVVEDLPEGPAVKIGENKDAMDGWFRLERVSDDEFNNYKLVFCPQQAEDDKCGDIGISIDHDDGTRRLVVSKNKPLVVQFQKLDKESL

[2] = target: Soybean agglutinin (SBA) (UniProt P05046)
[3] = target: T2, Soy Bowman-Birk Inhibitor (UniProt P01055)
T2 sequence: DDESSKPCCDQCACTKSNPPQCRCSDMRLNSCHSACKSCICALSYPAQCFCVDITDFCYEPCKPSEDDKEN

Chain of Soybean agglutinin (SBA) (P05046 33-285): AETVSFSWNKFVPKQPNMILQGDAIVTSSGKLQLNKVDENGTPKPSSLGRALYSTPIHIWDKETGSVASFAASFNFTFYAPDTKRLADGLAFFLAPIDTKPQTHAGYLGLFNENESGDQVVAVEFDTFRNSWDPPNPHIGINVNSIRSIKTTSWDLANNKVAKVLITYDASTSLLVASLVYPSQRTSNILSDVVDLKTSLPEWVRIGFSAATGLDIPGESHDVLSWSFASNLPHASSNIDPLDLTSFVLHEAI

Protease derived from Bacillus sp. NCIMB 40484
% of anti-nutritional factor degraded (SDS-PAGE band disappearance, 2 hours, 37° C., pH 6.5) [1]: 100%
% of anti-nutritional factor degraded (SDS-PAGE band disappearance, 2 hours, 37° C., pH 6.5) [2]: 21%
% of anti-nutritional factor degraded (SDS-PAGE band disappearance, 2 hours, 37° C., pH 6.5) [3]: 41%
